Measurements published in US5616559, “Papillomavirus E2 trans-activation repressors” (Biogen, Inc., dated 1997).
Numbering of substitutions follows the chain as printed.

B1: E2-85 (methionine, alanine and the C-terminal 83 amino acids of HPV16 E2) (other)
chain: MASNTTPIVHLKGDANTLKCLRYRFKKHCTLYTAVSSTWHWTGHNVKHKSAIVTLTYDSEWQRDQFLSQVKIPKTITVSTGFMSI
B2: BPV1 E2 mutant 333V in the E2 repressor format (C-terminal 249 amino acids) (other)
chain: MAGAGRIYYSRFGDEAARFSTTGHYSVRDQDRVYAGVSSTSSDFRDRPDGVWVASEGPEGDPAGKEAEPAQPVSSLLGSPACGPIRAGLGWVRDGPRSHPYNFPAGSGGSILRSSSTPVQGTVPVDLASRQEEEEQSPDSTEEEPVTLPRRTTNDGFHLLKAGGSCFALISVTANQVKCYRFRVKKNHRHRYENCTTTWFTVADNGAERQGQAQILITFGSPSQRQDFLKHVPLPPGMNISGFTASLDF
B3: BPV1 E2 mutant 340G in the E2 repressor format (C-terminal 249 amino acids) (other)
chain: B2 chain with V172G, C179G
B4: BPV1 E2 mutant 340S in the E2 repressor format (C-terminal 249 amino acids) (other)
chain: B2 chain with V172G, C179S
B5: BPV1 E2 repressor with a tryptophan to asparagine mutation at amino acid residue 360 (other)
chain: B2 chain with V172G, W199N
B6: BPV1 E2 mutant 399I in the E2 repressor format (C-terminal 249 amino acids) (other)
chain: B2 chain with V172G, M238I
B7: BPV1 E2 mutant 340F in the E2 repressor format (C-terminal 249 amino acids) (other)
chain: B2 chain with V172G, C179F
B8: BPV1 E2 mutant 360S in the E2 repressor format (C-terminal 249 amino acids) (other)
chain: B2 chain with V172G, W199S
B9: BPV1 E2 mutant 340Y in the E2 repressor format (C-terminal 249 amino acids) (other)
chain: B2 chain with V172G, C179Y
B10: BPV1 E2 mutant 337L in the E2 repressor format (C-terminal 249 amino acids) (other)
chain: B2 chain with V172G, Q176L
B11: BPV1 E2 mutant 339M in the E2 repressor format (C-terminal 249 amino acids) (other)
chain: B2 chain with V172G, K178M
B12: BPV1 E2 mutant 344L in the E2 repressor format (C-terminal 249 amino acids) (other)
chain: B2 chain with V172G, R183L
B13: BPV1 E2 mutant 340R in the E2 repressor format (C-terminal 249 amino acids) (other)
chain: B2 chain with V172G, C179R
B14: BPV1 E2 mutant 386W in the E2 repressor format (C-terminal 249 amino acids) (other)
chain: B2 chain with V172G, R225W
B15: BPV1 E2 mutant 333V, full-length form (other)
chain: METACERLHVAQETQMQLIEKSSDKLQDHILYWTAVRTENTLLYAARKKGVTVLGHCRVPHSVVCQERAKQAIEMQLSLQELSKTEFGDEPWSLLDTSWDRYMSEPKRCFKKGARVVEVEFDGNASNTNWYTVYSNLYMRTEDGWQLAKAGADGTGLYYCTMAGAGRIYYSRFGDEAARFSTTGHYSVRDQDRVYAGVSSTSSDFRDRPDGVWVASEGPEGDPAGKEAEPAQPVSSLLGSPACGPIRAGLGWVRDGPRSHPYNFPAGSGGSILRSSSTPVQGTVPVDLASRQEEEEQSPDSTEEEPVTLPRRTTNDGFHLLKAGGSCFALISVTANQVKCYRFRVKKNHRHRYENCTTTWFTVADNGAERQGQAQILITFGSPSQRQDFLKHVPLPPGMNISGFTASLDF
B16: BPV1 E2 mutant 360S, full-length form (other)
chain: B15 chain with V333G, W360S
B17: E2-123 (methionine, valine and the C-terminal 121 amino acids of HPV16 E2) (other)
chain: MVPDTGNPCHTTKLLHRDSVDSAPILTAFNSSHKGRINCNSNTTPIVHLKGDANTLKCLRYRFKKHCTLYTAVSSTWHWTGHNVKHKSAIVTLTYDSEWQRDQFLSQVKIPKTITVSTGFMSI

Tests used:
[1] = target: full-length native BPV1 E2 trans-activator protein (bovine papillomavirus type 1 (BPV1)) (UniProt P03122)
[2] = target: full-length HPV16 E2 protein (human papillomavirus type 16 (HPV16)) (UniProt P03120)
[3] = target: full-length native BPV1 E2 trans-activator protein (bovine papillomavirus type 1 (BPV1)) (UniProt P03122); remark: listed apart in the source
[4] = target: full-length HPV16 E2 protein (human papillomavirus type 16 (HPV16), UniProt P03120); assay: cell-based or functional assay
[5] = target: full-length native BPV1 E2 trans-activator protein (bovine papillomavirus type 1 (BPV1), UniProt P03122); assay: cell-based or functional assay
[6] = target: the molecule itself; assay: homodimerization; UV cross-linking, SDS-PAGE, immunoblot
[7] = target: the molecule itself; assay: homodimerization; UV cross-linking, yeast extract

| Molecule | Repression as % decrease in trans-activation by E2 [1] | Repression as % decrease in trans-activation by E2 [5] | also measured |
| --- | --- | --- | --- |
| BPV1 E2 mutant 370I in the E2 repressor format (C-terminal 249 amino acids) (from UniProt P03122) | 66.1% | – | – |
| BPV1 E2 mutant 316Y in the E2 repressor format (C-terminal 249 amino acids) (from UniProt P03122) | 8% | – | – |
| BPV1 E2 mutant 402* in the E2 repressor format (from UniProt P03122) | 45.2% | – | – |
| BPV1 E2 mutant 317STOP in the E2 repressor format (from UniProt P03122) | 7.1% | – | – |
| BPV1 E2 mutant 408* in the E2 repressor format (from UniProt P03122) | 59.5% | – | – |
| BPV1 E2 mutant 366Y/376L in the E2 repressor format (C-terminal 249 amino acids) (from UniProt P03122) | 16.1% | – | – |
| BPV1 E2 mutant 374S/375L/391I (3SLI) in the E2 repressor format (C-terminal 249 amino acids) (from UniProt P03122) | 39% | – | – |
| BPV1 E2 mutant 411* in the E2 repressor format (from UniProt P03122) | 4.5% | – | – |
| native BPV1 E2 repressor (C-terminal 249 amino acids of the BPV1 E2 protein) (from UniProt P03122) | – | – | % REPRESSION (hGH reporter) [2]: 100%; % repression of E2-dependent trans-activation (CAT or hGH reporter) [3]: > 80% |
| B1 | – | – | % REPRESSION (hGH reporter) [4]: 87.2% |
| B2 | – | 0% | – |
| B3 | – | 91.7% | – |
| B4 | – | 89.6% | – |
| B5 | – | – | % REPRESSION (hGH reporter) [4]: 0% |
| B6 | – | 86.9% | – |
| B7 | – | 86.1% | – |
| B8 | – | 32.3% | – |
| B9 | – | 93.5% | – |
| B10 | – | 90.4% | – |
| B11 | – | 76.2% | – |
| B12 | – | 82.6% | – |
| B13 | – | 95.6% | – |
| B14 | – | 81.4% | – |
| B15 | – | – | binding result [6]: no binding |
| B16 | – | – | binding result [7]: no binding |
| B17 | – | – | % REPRESSION (hGH reporter) [4]: 100% |
